Experimental data from patent US20020199211A1 (CHILDREN S MEDICAL CENTER, published 2002).

Tests used:
[1] = target: Nck-GBT9 (full-length Nck in the bait vector pGBT9) (UniProt P04386 1-147; P16333 1-377); assay: yeast two-hybrid (HF7c); - means no growth on selective medium
Description: (§1) Yeast transformation and colony analysis were performed according to the manufacturer's instructions (Matchmaker Two-Hybrid System Protocol, CLONTECH).

[2] = target: T1, full length WASP cloned into the bait vector pGBT9 (Gal4 binding domain fusion) (UniProt P04386 1-147; P42768 1-502); assay: as above
T1 construct: also called WAS protein
Description: as §1

Row | binding result [1] | binding result [2] | Binder
1 | no binding | no binding | human TRAF1 (amino acids 62-416) in pGAD424 (other, UniProt Q13077 62-416, looked up, not shown: large carriers, Control prey; also called tumor necrosis factor receptor-associated factor 1) LQSISPGSRLRTQEKAHPEVAEAGIGCPFAGVGCSFKGSPQSVQEHEVTSQTSHLNLLLGFMKQWKARLGCGLESGPMALEQNLSDLQLQAAVEVAGDLEVDCYRAPCSESQEELALQHFMKEKLLAELEGKLRVFENIVAVLNKEVEASHLALATSIHQSQLDRERILSLEQRVVELQQTLAQKDQALGKLEQSLRLMEEASFDGTFLWKITNVTRRCHESACGRTVSLFSPAFYTAKYGYKLCLRLYLNGDGTGKRTHLSLFIVIMRGEYDALLPWPFRNKVTFMLLDQNNREHAIDAFRPDLSSASFQRPQSETNVASGCPLFFPLSKLQSPKHAYVKDDTMFLKCIVETST
2 | no binding | no binding | pGAD424 without insert (Gal4 activation domain alone) (other, UniProt P04386 768-881, looked up, also called None (pGAD424)) ANFNQSGNIADSSLSFTFTNSSNGPNLITTQTNSQALSQPIASSNVHDNFMNNEITASKIDDGNNSKPLSPGWTDQTAYNAFGITTGMFNTTTMDDVYNYLFDDEDTPPNPKKE
